According to the Human Domainome abundance scans (Beltran et al. 2025):

B1: LIM and senescent cell antigen-like-containing domain protein 2, residues 13 to 71; numbered along this chain, Q7Z4I7 (parent)
chain: AVCQRCQARFSPAERIVNSNGELYHEHCFVCAQCFRPFPEGLFYEFEGRKYCEHDFQML

Variants of: B1
Experiment: abundance fitness (aPCA) (normalised: wild type 0, dead -1); higher = more abundant; growth selection in yeast, the domain comes from the species named
Conditions: Homo sapiens

Abundance fitness of substitutions, site by site:
F35: H 0.224, V 0.112, W -0.076, E 0.144, M -0.027, S 0.219, Y 0.008, G 0.195, I 0.01, D 0.153, N 0.147, A 0.077, L 0.031, K 0.204, Q -0.014, C 0.096, P -0.739, T 0.072
A32: I -0.117, H 0.118, V -0.001, E 0.014, R -0.26, C -0.354, Y 0.147, L -0.322, W -0.149, M -0.099, K -0.274, F -0.258, S -0.172, Q 0.083, G -0.073, D -0.026
C28: M -0.418, R -0.718, P -1.13, K -0.538, S -0.832, W -0.996, D -0.322, I -0.728, L -1.08, Q -0.872, E -0.62, A -0.292, H -0.089, G -0.987, V -0.77, F -0.994
R36: E 0.01, Q 0.063, N -0.156, F -0.298, H -0.024, C -0.026, I -0.232, A -0.196, V -0.399, S -0.008, K 0.094, G -0.064, D -0.095, W -0.423, L -0.176, T -0.268, Y -0.515, P -0.625, M -0.042
G21: Q -0.2, S -0.054, I -0.947, V -0.45, K -0.016, F -0.4, E 0.053, R -0.332, H -0.178, Y -0.518, M -0.328, A -0.045, D -0.324, N -0.063, L -0.17, P -0.457, W -0.752, C -0.435
E22: T -0.006, S -0.093, D -0.598, V -0.098, F 0.133, A 0.079, I -0.162, H 0.101, Q 0.216, Y -0.08, G -0.096, R 0.537, N 0.053, W -0.31, K -0.01, C 0.056, M -0.093
C31: H -0.481, G -0.774, F -0.954, V -1.04, M -0.785, K -1.1, L -0.709, I -0.76, S -0.896, P -0.888, Q -1.06, D -0.574, R -0.767, W -0.893, T -0.975, E -0.612
F38: Q -0.606, I -0.55, W -0.273, T -0.123, P -0.101, A -0.318, C -0.18, K -0.238, R -0.571, D -0.522, H -0.784, M -0.225, N -0.113, L 0.045, Y -0.638, E -0.512, G -0.58
C34: N -0.865, A -0.871, W -1.1, T -1.13, P -0.508, S -1, V -1.04, L -0.52, K -0.901, R -0.668, Q -0.622, M -0.474, E -0.788, D -0.757, Y -0.933, F -1.19, G -0.544
H27: P -0.228, A -0.175, R -0.016, S -0.227, G -0.294, V -0.001, F -0.209, T -0.227, Q 0.148
E26: G -0.353, S -0.051, P -0.294, I -0.084, Y -0.115, K -0.125, F -0.293, V 0.022, T -0.164, W -0.547, H -0.082, C -0.51, M -0.253, R -0.237, N -0.395, L -0.401, D -0.114
L23: G -0.2, I 0.078, S -0.003, H 0.238, E -0.18, A 0.001, D -0.106, K -0.013, R 0.017, Q 0.123, Y 0.186, P 0.027, N -0.076, C -0.185, M 0.067, W -0.168, T -0.009, F -0.082
N20: S 0.087, Y -0.376, R -0.161, M -0.155, Q -0.116, H 0.087, K 0.797, I -0.482, T -0.085, P -0.528, L -0.136
E40: H 0.023, N -0.236, G -0.158, K -0.039, Q -0.105, L -0.068, D -0.018, A -0.098, I -0.752
V30: S -0.114, Q -0.265, Y -0.343, E -0.294, D -0.798, H -0.143, F -0.097, N -0.257, L -0.021, M -0.311, T -0.065, G -0.233, I -0.252, R -0.093, C -0.11, K -0.224, W -0.411
F29: Q -0.184, C -0.012, L -0.011, P 0.029, T -0.011, R -0.141, V -0.083, N -0.175, G -0.019, W 0.008, E -0.326, Y -0.2, A 0.207, S -0.155, M 0.1, I 0.015, K -0.407, H 0.042
H25: K -0.929, W -0.568, F -0.895, C 0.048, Y -0.786, R -0.784, M -0.856, S -0.894, G -0.832, P -0.752, Q -0.987, L -0.668, D -0.96, V -0.838, I -0.972, A -0.918, T -0.808
Q33: Y -0.107, C -0.145, P -0.58, K -0.092, E 0.044, N 0.053, M -0.068, S -0.135, T 0.012, W -0.206, V 0.071, A 0.024, R -0.077, L -0.195, F 0.285
P37: T -0.148, C -0.171, M -0.198, D -0.217, A -0.187, V -0.193, W -0.371, Y -0.14, K -0.214, I -0.23, F -0.192, L -0.349, E 0.042, H -0.445, S -0.016, G -0.328, Q -0.343
Y24: N -0.474, K -0.257, D -0.444, I -0.137, H -0.16, V -0.072, C -0.116, G -0.238, T -0.232, L -0.057, F 0.007, W -0.123, E -0.303, Q -0.282
P39: H -0.383, Q -0.058, G -0.159, K -0.064, I -0.396, V -0.017, F -0.565, T -0.091, S -0.124, D 0.05, E -0.024, Y -0.396, A -0.056, M -0.143, L -0.211, W -0.206, R -0.107, C 0.01
